The test has as its target T1, GST-tagged full-length TAF15 (human, UniProt Q92804 1-592).
T1 construct: TAF15, human, full length, cloned into pGEX-6p-1; Immobilised on glutathione-Sepharose 4B in the pull-down; also called GST-TAF15; source: E. coli BL21, purified (Glutathione Sepharose)
As to the kind of experiment: pull-down; GST pull-down: GST-TAF15 or GST alone immobilised on glutathione-Sepharose 4B, His-NOP58 added, 1 h at 4 °C in 50 mM Tris-HCl pH 7.5, 150 mM NaCl, 10 mM MgCl2, 10% glycerol, 1% Triton X-100, 1 mM DTT, 1% BSA; western blot; also with in vitro transcribed INHEG. Particulars: both partners purified. On the technique in general: Immunoblotting shows a protein as a band on a membrane.

T1 sequence (Q92804 whole entry): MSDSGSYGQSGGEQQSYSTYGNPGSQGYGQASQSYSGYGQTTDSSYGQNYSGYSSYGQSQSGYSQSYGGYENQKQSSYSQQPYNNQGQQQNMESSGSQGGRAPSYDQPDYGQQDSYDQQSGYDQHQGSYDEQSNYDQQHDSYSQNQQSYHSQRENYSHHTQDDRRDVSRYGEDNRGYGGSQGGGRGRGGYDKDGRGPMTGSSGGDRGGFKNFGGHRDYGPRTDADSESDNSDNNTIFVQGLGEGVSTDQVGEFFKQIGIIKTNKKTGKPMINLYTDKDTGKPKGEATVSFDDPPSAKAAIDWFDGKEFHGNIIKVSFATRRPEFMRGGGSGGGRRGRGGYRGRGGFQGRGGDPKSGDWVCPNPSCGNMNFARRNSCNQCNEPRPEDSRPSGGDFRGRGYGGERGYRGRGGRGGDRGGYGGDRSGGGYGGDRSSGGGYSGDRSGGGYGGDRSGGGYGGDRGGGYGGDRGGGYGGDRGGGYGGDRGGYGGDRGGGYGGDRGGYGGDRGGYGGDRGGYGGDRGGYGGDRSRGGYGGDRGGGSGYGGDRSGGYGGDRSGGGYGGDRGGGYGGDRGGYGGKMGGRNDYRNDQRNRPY

B1: His-tagged full-length NOP58 (natural protein, human, UniProt Q9Y2X3 1-529, looked up)
chain: MLVLFETSVGYAIFKVLNEKKLQEVDSLWKEFETPEKANKIVKLKHFEKFQDTAEALAAFTALMEGKINKQLKKVLKKIVKEAHEPLAVADAKLGGVIKEKLNLSCIHSPVVNELMRGIRSQMDGLIPGVEPREMAAMCLGLAHSLSRYRLKFSADKVDTMIVQAISLLDDLDKELNNYIMRCREWYGWHFPELGKIISDNLTYCKCLQKVGDRKNYASAKLSELLPEEVEAEVKAAAEISMGTEVSEEDICNILHLCTQVIEISEYRTQLYEYLQNRMMAIAPNVTVMVGELVGARLIAHAGSLLNLAKHAASTVQILGAEKALFRALKSRRDTPKYGLIYHASLVGQTSPKHKGKISRMLAAKTVLAIRYDAFGEDSSSAMGVENRAKLEARLRTLEDRGIRKISGTGKALAKTEKYEHKSEVKTYDPSGDSTLPTCSKKRKIEQVDKEDEITEKKAKKAKIKVKVEEEEEEKVAEEEETSVKKKKKRGKKKHIKEEPLSEEEPCTSTAIASPEKKKKKKKKRENED
notes: NOP58, human, full length, cloned into pET-28a; also called His-NOP58; source: E. coli BL21, purified (Ni-NTA)
Take B1: the binding result was “binds”.

The record behind these values is paper PMC10657414, “LncRNA INHEG promotes glioma stem cell maintenance and tumorigenicity through regulating rRNA 2’-O-methylation” (Nature Communications, 2023).
